Results published in patent US10450570B2, “Compositions and methods for controlling vasculature” (YALE UNIVERSITY, priority 2016, dated 2019).

How the values were obtained:
[1] = system: tail skin lymphatic formation; experiment: Tail skin lymphatic formation in neonatal mice after adenovirus injection; format: in vivo; settings: adenovirus injected into mouse pups at P0 and P1, examined at P6
Description: Adenovirus encoding GFP, empty CMV vector, sFGFR1-IIIC (Murakami, M. et al., 118, 3355-3366, (2008)), HK2 (Wu, R. et al. Circulation research 108, 60-69, (2011)), or Myc (from Vector Biolabs) for in vitro experiments was amplified in 293A cells according to the user manual of ViraPower™ Adenoviral Expression System (Life Technologies). Virus was tittered using Adeno-X™ Rapid Titer Kit (Clontech Laboratories). For in vivo experiments, LacZ- or sFGFR1-IIIC was amplified and purified at University of North Carolina virus vector core. Neonatal pups were injected i.p. with 5×10^8 FFU of LacZ or sFGFR1-IIIC virus at P0 and P1. Tail skin was harvested at P6 using a method published previously (Xu, Y. et al., J Cell Biol 188, 115-130, (2010)).

[2] = system: FGF2-induced ERK activation in HDLECs; experiment: FGF2-induced ERK activation, Western blot of phosphorylated and total ERK; format: cell-based, human; settings: HDLECs infected with adenovirus, serum-starved, stimulated with FGF2
Description: Human dermal lymphatic endothelial cells (HDLECs, HMVEC-dLyNeo-Der Lym Endo EGM-2MV) and Pooled human umbilical vein endothelial cells (HUVECs) were purchased from Lonza and cultured in EBM2 basal medium with EGM-2 MV BulletKit. Both cell types were tested negative for mycoplasma in Lonza. Culture medium was changed every the other day. Tissue culture plates were coated with 0.1% gelatin (Sigma) for 30 min at 37° C. and washed with Dulbecco's Phosphate-Buffered Saline (Life Technologies) before cell plating. For siRNA-mediated gene knockdown, FGFR1 siRNA (ON-TARGETplus human FGFR1 siRNA, Dharmacon; Hs_FGFR1_6, Qiagen), FGFR3 siRNA (Hs_FGFR3_6, Qiagen), HK2 siRNA (s6562 human HK2 siRNA, Life Technologies), c-Myc siRNA (ON-TARGETplus human Myc siRNA, Dharmacon), AllStar negative control siRNA (Qiagen), and ON-TARGETplus Non-targeting pool (Dharmacon) were transfected by lipofectamine RNAimax reagent (Life Technologies). Human FGF2 was provided by Kaken Pharmaceutical Co, Ltd (Japan) and ordered from Peprotech. Human VEGFC, VEGFD, IGF1, IGF2 and PDGFBB were purchased from Peprotech. To assay the effect of FGFR1 knockdown on glycolytic enzyme expression, HDLECs, transfected with control or FGFR1 siRNA 3 days in advance, were replated and collected for protein analysis 24 hr later when the cell confluency reached ˜80%. […] ImageJ was used for densitometry quantification of western blot bands. […]

[3] = system: HK2 and other glycolytic enzymes in HDLECs; experiment: Western blot of glycolytic enzyme expression in HDLECs; format: cell-based, human; settings: protein
Description: Human dermal lymphatic endothelial cells (HDLECs, HMVEC-dLyNeo-Der Lym Endo EGM-2MV) and Pooled human umbilical vein endothelial cells (HUVECs) were purchased from Lonza and cultured in EBM2 basal medium with EGM-2 MV BulletKit. Both cell types were tested negative for mycoplasma in Lonza. Culture medium was changed every the other day. Tissue culture plates were coated with 0.1% gelatin (Sigma) for 30 min at 37° C. and washed with Dulbecco's Phosphate-Buffered Saline (Life Technologies) before cell plating. For siRNA-mediated gene knockdown, FGFR1 siRNA (ON-TARGETplus human FGFR1 siRNA, Dharmacon; Hs_FGFR1_6, Qiagen), FGFR3 siRNA (Hs_FGFR3_6, Qiagen), HK2 siRNA (s6562 human HK2 siRNA, Life Technologies), c-Myc siRNA (ON-TARGETplus human Myc siRNA, Dharmacon), AllStar negative control siRNA (Qiagen), and ON-TARGETplus Non-targeting pool (Dharmacon) were transfected by lipofectamine RNAimax reagent (Life Technologies). Human FGF2 was provided by Kaken Pharmaceutical Co, Ltd (Japan) and ordered from Peprotech. Human VEGFC, VEGFD, IGF1, IGF2 and PDGFBB were purchased from Peprotech. To assay the effect of FGFR1 knockdown on glycolytic enzyme expression, HDLECs, transfected with control or FGFR1 siRNA 3 days in advance, were replated and collected for protein analysis 24 hr later when the cell confluency reached ˜80%. […] ImageJ was used for densitometry quantification of western blot bands.

HDLECs = experiment: Glycolytic flux measurement (5-3H-glucose); format: cell-based, human
Description: Glycolysis was measured as previously described. Briefly, subconfluent HDLECs cultured in 12-well plates were incubated with 1 ml/well EBM2 medium (containing appropriate amount of serum and supplement) with 80 μCi/mmol 5-^3H-glucose (Perkin Elmer) for 2-3 hr. Then 0.8 ml/well medium was transferred into glass vials with hanging wells and filter papers soaked with H2O. After incubation in a cell culture incubator for at least 2 days to reach saturation, filter papers were taken out and the amount of evaporated ^3H2O was measured in a scintillation counter. Glucose oxidation, glutamine oxidation and fatty acid oxidation were measured essentially as reported. For measurement of glucose uptake, HDLECs were incubated with 2-[1-^14C]-deoxy-D-glucose (2.5 μCi/ml, Perkin Elmer) for 10 min. before PBS washing (at least 3 times to get rid of all radioactive medium) and then lysis with 500 μL 0.1 N NaOH. 400 μl NaOH cell lysate for each sample was transferred to scintillation vials containing scintillation liquid and measured.

Row | Molecule | tail skin lymphatic formation [1] | FGF2-induced ERK activation [2] | glycolytic enzyme (HK2) expression [3] | glycolytic flux (HDLECs)
1 | sFGFR1-IIIC: soluble pan-FGF receptor trap, delivered by adenovirus (protein, UniProt P11362 22-376, looked up, extracellular domain IIIc isoform, adenovirus-delivered) extracellular domain: RPSPTLPEQAQPWGAPVEVESFLVHPGDLLQLRCRLRDDVQSINWLRDGVQLAESNRTRITGEEVEVQDSVPADSGLYACVTSSPSGSDTTYFSVNVSDALPSSEDDDDDDDSSSEEKETDNTKPNRMPVAPYWTSPEKMEKKLHAVPAAKTVKFKCPSSGTPNPTLRWLKNGKEFKPDHRIGGYKVRYATWSIIMDSVVPSDKGNYTCIVENEYGSINHTYQLDVVERSPHRPILQAGLPANKTVALGSNVEFMCKVYSDPQPHIQWLKHIEVNGSKIGPDNLPYVQILKTAGVNTTDKEMEVLHLRNVSFEDAGEYTCLAGNSIGLSHHSAWLTVLEALEERPAVMTSPLYLE | significant inhibition of tail skin lymphatic formation | inhibited FGF2-induced ERK activation to the same extent as DN-FGFR1 | – | –
2 | VEGFC: Human VEGFC growth factor purchased from Peprotech (protein, UniProt P49767 112-227, looked up) Vascular endothelial growth …: AHYNTEILKSIDNEWRKTQCMPREVCIDVGKEFGVATNTFFKPPCVSVYRCGGCCNSEGLQCMNTSTSYLSKTLFEITVPLSQGPKPVTISFANHTSCRCMSKLDVYRQVHSIIRR | – | – | increased HK2 expression without affecting other enzymes | increased glycolytic flux, albeit to a lesser extent than FGF2
3 | VEGFD: Human VEGFD growth factor purchased from Peprotech (protein, UniProt O43915 89-205, looked up) Vascular endothelial growth …: FAATFYDIETLKVIDEEWQRTQCSPRETCVEVASELGKSTNTFFKPPCVNVFRCGGCCNEESLICMNTSTSYISKQLFEISVPLTSVPELVPVKVANHTGCKCLPTAPRHPYSIIRR | – | – | – | no effect
4 | PDGFBB: platelet-derived growth factor-BB, purchased from Peprotech (protein, UniProt P01127 82-190, looked up) Platelet-derived growth …: SLGSLTIAEPAMIAECKTRTEVFEISRRLIDRTNANFLVWPPCVEVQRCSGCCNNRNVQCRPTQVQLRPVQVRKIEIVRKKPIFKKATVTLEDHLACKCETVAAARPVT | – | – | – | reduced flux
